Results on two molecules are retold here after patent US20250222136A1, “GENE EDITING SYSTEM FOR TREATING USHER SYNDROME” (GenKOre, Inc., priority 2022, published 2025).

Data set [1] has as its system Target-1 (SEQ ID NO: 358), human endogenous DNA target site. Description: Indel efficiency of CWCas12f1 gene editing system with engineered gRNAs, target sequence 1. The data set is classed as cell-based. The method, then: (§1) To this end, each of the modification site MS3 to MS5 in the canonical sgRNA was further subdivided into three sections (see FIG. 2A). By combining one or more of these modifications, engineered gRNAs (see Table 10 in Example 1.2.1) were produced, and the indel activity for each of them was tested. As target sequences for comparing the indel efficiency, two types of human endogenous DNA target sites comprising the PAM sequence recognized as the cleavage site by the CWCas12f1 protein were identified and used, and the specific nucleotide sequences are provided in Table 12 below.
(§2) Next, to obtain a highly efficient engineered single guide RNA for the CWCas12f1 protein, 5′-[…]uuagGGGAUUA […]gaaaGAAUGAAGGAAUGCAA […]-3′ (SEQ ID NO: 337), which is a mature form (hereinafter referred to as ‘MF’) sgRNA, and engineered gRNAs having partial modifications in the nucleotide sequence of the MF sgRNA were produced (see Table 11), and the indel efficiency of the CWCas12f1 gene editing system caused by them was measured.
(§3) Meanwhile, the comparative experiment of indel efficiency of the engineered Cas12f1 proteins in Examples 1.2.2 and 1.2.3 was performed as follows.
(§4) One day before transfection, HEK293T cells, which had been grown in 24-well plates to 80-90% confluency (based on 100φ dishes), were diluted 1/100 and passaged to prepare a volume of 500 μl. A total of 2 μg of DNA (vector+sgRNA transcription cassette targeting DY10) was used per transfection well. The experiment was repeated twice for each group. A transfection mixture was prepared which contains 1.5 μg of plasmid encoding the wild-type Cas12f1 or the engineered Cas12f1, 0.5 μg of the sgRNA transcription cassette, 200 μl of DMEM (excluding FBS and antibiotics), and 6 μl of FuGENE (Promega) reagent.
(§5) DNA and DMEM containing FuGENE reagent were mixed and vortexed, and then incubated for 15 minutes. 200 μl of the thus prepared transfection mixture was used to treat the cells prepared in a 24-well plate, and incubated at 37° C. […]
(§6) Indel frequency was calculated using MAUND provided at ┌https://github.com/ibs-cge/maund┘.

Data set [2] relates to Target-2 (SEQ ID NO: 359), human endogenous DNA target site. The data set can be described thus: Indel efficiency of CWCas12f1 gene editing system with engineered gRNAs, target sequence 2. The class given is cell-based. The method, then: as §1, §2, §3, §4, §5, §6

B1: MS3-3/MS4-3: MF-based engineered sgRNA, SEQ ID NO: 347 (nucleic acid)
guide: ACCGCUUCACCAAAAGCUGUCCCUUAGGGGAUUAGAACUUGAGUGAAGGUGGGCUGCUUGCAUCAGCCUAAUGUCGAGAAGUGCUUUCUUCGGAAAGUAACCCUCGAAACAAAGAAAGGAAUGCAACNNNNNNNNNNNNNNNNNNNN
modifications: Mature form sgRNA with modification of MS3-3/MS4-3; misc_feature 128..147 n is a, c, g or u
Turning to B1, the indel efficiency entry in data set [1] (CWCas12f1, Target-1, MF-based gRNA with U-rich tail (U4AU4) added to the 3′-end (MS2), FIG. 4B) is on record as “about 60%”; in data set [1] (CWCas12f1, Target-1, gRNAs engineered from mature form (MF) sgRNA, no U-rich tail, FIG. 4A) it was “about 40%”; in data set [2] (CWCas12f1, Target-2, MF-based gRNA with U-rich tail (U4AU4) added to the 3′-end (MS2), FIG. 4D), “about 50%”; in data set [2] (CWCas12f1, Target-2, gRNAs engineered from mature form (MF) sgRNA, no U-rich tail, FIG. 4C), “about 20%”.

B2: Canonical sgRNA: canonical (wild-type, full length) single guide RNA for Cas12f1, SEQ ID NO: 177 (nucleic acid)
guide: CUUCACUGAUAAAGUGGAGAACCGCUUCACCAAAAGCUGUCCCUUAGGGGAUUAGAACUUGAGUGAAGGUGGGCUGCUUGCAUCAGCCUAAUGUCGAGAAGUGCUUUCUUCGGAAAGUAACCCUCGAAACAAAUUCAUUUUUCCUCUCCAAUUCUGCACAAGAAAGUUGCAGAACCCGAAUAGACGAAUGAAGGAAUGCAACNNNNNNNNNNNNNNNNNNNN
modifications: Canonical sgRNA for Cas12f1; misc_feature 203..222 n is a, c, g or u
Take B2: the indel efficiency result is recorded as “did not cause cleavage of the target strand” in data set [1] (CWCas12f1 protein, Target-1 (SEQ ID NO: 358), gRNAs engineered from canonical sgRNA, FIG. 3A) and “did not cause cleavage of the target strand” in data set [2] (CWCas12f1 protein, Target-2 (SEQ ID NO: 359), gRNAs engineered from canonical sgRNA, FIG. 3B).
